{"source": "patent US10077433B2", "about": "“Permuted and nonpermuted luciferase biosensors” (PROMEGA CORPORATION, priority 2006, dated 2018)", "key": {"[1]": {"tested_on": "cyclic AMP dependent protein kinase catalytic subunit", "conditions": "cited from earlier work"}, "[2]": {"tested_on": "intracellular cAMP concentration, HEK 293 cells", "test": "Intracellular cAMP changes in HEK 293 cells transiently transfected with CPM-FF Luc/RIIβB (pBFB141)", "type": "cell-based", "procedure": "Cells were cultured in 60 ml in DMEM/F12 with HEPES buffer (Invitrogen) with 10% FBS at 37° C. with 5% CO2.\nThe ORF encoding the CPM-FF Luc/RIIβB based cAMP biosensor with X/Y linker lengths of (X=10, Y=0) was transferred to Flexi vector pF4K (Flexi vector system; Promega Corp.). The resultant plasmid construct (pBFB141) utilizes an upstream CMV promoter for expression of the associated cAMP biosensor in mammalian cells.\nCells were transfected with TransIt®-LT1 Reagent (MIRUS) using 0.3 μl TransIt®-LT1 reagent and 0.15 μg DNA per well of a 96 well plate. Cells were allowed to grow overnight and were assayed the next day.\nApproximately 1 day after transfection, cells were removed from the incubator and equilibrated to room temperature. A 5 μl aliquot of 100 mM Luciferin EF was added to a total of 90 μl of cell culture plus transfection reagent to give a final concentration of approximately 5 mM luciferin. Cells were then incubated at room temperature for at least 90 minutes. After 90 minutes at room temperature, baseline measurements of luminescence were measured using a 96 well Veritas Luminometer (Turner Biosystems; integration time of 0.5 seconds per well). Cells were then induced with 10 μM isopreterenol (CalBiochem), 50 mM forskolin (Sigma) or not induced (0.1% DMSO, Sigma) and luminescence was measured continuously for about 30 minutes. After 30 minutes, […] (Sigma) was added to cells with isopreterenol and 0.1% DMSO was added to all other samples. Luminescence was then measured continuously for the next 30 minutes. A final addition of 50 μM forskolin was added to the isopreterenol/propranolol sample and 0.1% DMSO was added to all other samples. Luminescence was then measured continuously for the next half hour. Samples were measured in sets of 12 replicates. 10× stocks of isopreterenol, propranolol, forskolin and DMSO were made in 1×PBS (Invitrogen)."}, "[3]": {"tested_on": "intracellular cAMP concentration, HEK 293 cells", "test": "Intracellular cAMP changes in HEK293 cells with CPM-hRL Luc/RIIβB biosensors (isopreterenol, propranolol, forskolin)", "type": "cell-based", "procedure": "Cells were cultured in 2 mL DMEM/F12 with HEPES buffer (Invitrogen) and 10% FBS at 37° C. with 5% CO2 in a 6 well plate. Three of the constructs described in Example XVII were used to detect intracellular changes of cAMP concentrations. The constructs used were: pBFB277, pBFB279 and pBFB287. HEK293 cells stably expressing CPM91-hRL/RIIβB (ORF derived from 201325.44.H6 were also used in these experiments. HEK293 cells were transfected with TransIt®-LT1 Reagent (MIRUS) using 6 μL TransIt®-LT1 reagent and 2 μg DNA (pBFB277, pBFB279 and pBFB287) per well of a 6 well plate. Cells were allowed to grow overnight and were assayed the next day. Approximately 1 day after transfection, cells were trypsinized, resuspended in fresh DMEM/F12 with HEPES buffer (Invitrogen) with 1% FBS and plated in a 96 well plate at approximately 10,000 cells per well. Alternatively, a HEK293 cell line stably expressing CP91-hRL/RIIβB was plated in a 96 well plate at approximately 10,000 cells per well. A 10 μL aliquot of 600 μM EnduRen was added to a total of 100 μL of cell culture to give a final concentration of approximately […]. Cells were then incubated at 37° C. with 5% CO2. After 5 hours, the plate was removed from the incubator and allowed to cool to room temperature for at least 20 minutes. After 20 minutes, baseline measurements of luminescence were measured using a 96 well Veritas Luminometer (Turner Biosystems; integration time of 0.5 seconds per well). Cells were then induced with 10 μM isopreterenol (CalBiochem), 50 μM forskolin (Sigma) or not induced (0.1% DMSO, Sigma) and luminescence was measured continuously for about 30 minutes. After 30 minutes, 10 μM propranolol (Sigma) was added to cells already induced with isopreterenol and 0.1% DMSO was added to all other samples. Luminescence was then measured continuously for the next 30 minutes. A final addition of 50 μM forskolin was added to the isopreterenol/propranolol sample and 0.1% DMSO was added to all other samples. Luminescence was then measured continuously for the next half hour. Samples were measured in sets of 4-6 replicates. 10× stocks of isopreterenol, propranolol, forskolin and DMSO were made in DMEM/F12 with HEPES buffer (Invitrogen) and 1% FBS."}, "[4]": {"test": "Nonpermuted Oplophorus luciferase/RIIβB insertion constructs, luminescence with or without exogenous cAMP", "type": "biochemical", "conditions": "for luminescence, + exogenous cAMP: addition of exogenous cAMP to 50 μM final concentration; for luminescence, − no exogenous cAMP: no exogenous cAMP was added", "procedure": "Protein was expressed from these constructs using the TnT T7 Coupled Reticulocyte Lysate System. Following expression, 9 μL of TNT reaction was mixed with 1 μL 1 mM cAMP stock or H2O, and the reactions were allowed to incubate at room temperature for approximately 15 minutes. Following incubation, 10 μL of 2× buffer (300 mM HEPES, pH=8.0, 200 mM thiourea) was added to each reaction, and luminescence was measured from the resulting 20 μL of solution following addition of 100 μL of Renilla Assay Reagent using a Turner 20/20N luminometer (1 second integration time)."}, "[5]": {"test": "CPM hRL / GAF A domain biosensor, luminescence with or without exogenous cAMP (reticulocyte lysate)", "type": "biochemical", "procedure": "An additional type of cAMP biosensor was constructed using a circularly permuted Renilla luciferase (hRL) and a GAF domain. The plasmid DNA construct encoding the following fusion protein: Met-(hRL 92-311)-[…]-(GAF A domain from Trypanosoma brucei PDE; Genbank AF192755 amino acids 241-375)-[…]-A-(hRL 3-91)-Val (SEQ ID NO:185) [clone pBFB232]. Following expression using the T7 Coupled Reticulocyte Lysate System, luminescence activity was measured in the presence or absence of exogenous cAMP. In the presence of cAMP, the measured activity was 7595 RLU; in the absence of cAMP, the measured activity was 298 RLU (about a 25 fold change). […] This type of reagent may allow the monitoring of changes in cAMP concentration in living cells, and it also may provide distinct advantages over existing FRET-based cAMP biosensors in that assay format. Moreover, since the GAF domain is a highly conserved fold in nature responsible for binding a wide range of molecules, it is likely that additional types of CPM hRL biosensors could be made using this fold."}}, "data": [{"molecule": "LRRASLG", "values": [{"measurement": "decrease in activity on phosphorylation by cyclic AMP dependent protein kinase", "setting": "[1]", "value": 30, "unit": "%"}]}, {"molecule": "RRFS: Photinus pyralis luciferase V217R mutant with site RRFS (SEQ ID NO:117), Sala-Newby et al.", "values": [{"measurement": "decrease in activity on phosphorylation by cyclic AMP dependent protein kinase", "setting": "[1]", "value": "up to 80%"}]}, {"molecule": "Wild type luciferase: wild type (firefly) luciferase control", "values": [{"measurement": "response to known modulators of intracellular cAMP concentration", "setting": "[2]; control constructs in HEK 293 cells", "value": "no specific response"}]}, {"molecule": "CC(C)NCC(O)c1ccc(O)c(O)c1", "note": "(stereo not shown) [isopreterenol]", "values": [{"measurement": "increase in light output from transfected cells", "setting": "[2]; HEK 293 cells, pBFB141, 10 μM isopreterenol or 50 mM forskolin (so in the source), treatment alone, room temperature", "value": "approximately 2 fold"}, {"measurement": "increase in light output", "setting": "[3]; HEK293 cells stably expressing CPM91-hRL/RIIβB, isopreterenol and forskolin treatment", "value": "about 5 fold"}, {"measurement": "increase in light output from transfected cells", "setting": "[3]; HEK 293 transiently transfected with CPM-hRL Luc/RIIβB (X=4, Y=20) constructs, 10 μM isopreterenol or 50 μM forskolin alone", "value": "approximately 2 fold"}]}, {"molecule": "pBFB399: OpLuc 1-50 / R2betaB / OpLuc 51-169, 20 aa linkers (SEQ ID NO: 192) (protein) MFTLADFVGDWQQTAGYNQDQVLEQGGLSSLFQALGVSVTPIQKVVLSGENGSSGGSGGSGGGSGGSGGSGMYESFIESLPFLKSLEFSERLKVVDVIGTKVYNDGEQIIAQGDSADSFFIVESGEVKITMKRKGKSEVEENGAVEIARCSRGQYFGELALVTNKPRAASAHAIGTVKCLAMDVQAFERLLGPCMEIMKRNIATYEEQLVALFGTNMDIVGSGGSGGSGGTSGGSGGSSGGLKADIHVIIPYEGLSGFQMGLIEMIFKVVYPVDDHHFKIILHYGTLVIDGVTPNMIDYFGRPYPGIAVFDGKQITVTGTLWNGNKIYDERLINPDGSLLFRVTINGVTGWRLCENILA", "values": [{"measurement": "luminescence, + exogenous cAMP", "setting": "[4]", "value": "38,051"}, {"measurement": "luminescence, − no exogenous cAMP", "setting": "[4]", "value": 356}]}, {"molecule": "pBFB401: Met-(OpLuc 1-84)-GSSGGSGGSG-R2betaB-GSSGGSGGSG-(OpLuc 85-169) (protein) MFTLADFVGDWQQTAGYNQDQVLEQGGLSSLFQALGVSVTPIQKVVLSGENGLKADIHVIIPYEGLSGFQMGLIEMIFKVVYPVDGSSGGSGGSGMYESFIESLPFLKSLEFSERLKVVDVIGTKVYNDGEQIIAQGDSADSFFIVESGEVKITMKRKGKSEVEENGAVEIARCSRGQYFGELALVTNKPRAASAHAIGTVKCLAMDVQAFERLLGPCMEIMKRNIATYEEQLVALFGTNMDIVGSSGGSGGSGDHHFKIILHYGTLVIDGVTPNMIDYFGRPYPGIAVFDGKQITVTGTLWNGNKIYDERLINPDGSLLFRVTINGVTGWRLCENILA", "values": [{"measurement": "luminescence, + exogenous cAMP", "setting": "[4]", "value": "6,124"}, {"measurement": "luminescence, − no exogenous cAMP", "setting": "[4]", "value": "2,304"}]}, {"molecule": "pBFB232: CPM hRL 92-311/3-91 with GAF A domain from Trypanosoma brucei PDE (SEQ ID NO:185) (protein) MYRLLDHYKYLTAWFELLNLPKKIIFVGHDWGACLAFHYSYEHQDKIKAIVHAESVVDVIESWDEWPDIEEDIALIKSEEGEKMVLENNFFVETMLPSKIMRKLEPEEFAAYLEPFKEKGEVRRPTLSWPREIPLVKGGKPDVVQIVRNYNAYLRASDDLPKMFIESDPGFFSNAIVEGAKKFPNTEFVKVKGLHFSQEDAPDEMGKYIKSFVERVLKNEQGSSGGSGGSGGGSGGSGGSGSIMNTVKSLTESARCSLFLVRGDVLEAHFEDGNVVTIPRGAGIAGYVAQTGETVNIVDAYADDRFNREVDKATGYRTKTILCMPVMYEGTIVAVAQLINKLDLTTESGLRLPRVFGKRDEELFQTFSMFAGASLRGSGGSGGSGGTSGGSGGSSGASKVYDPEQRKRMITGPQWWARCKQMNVLDSFINYYDSEKHAENAVIFLHGNAASSYLWRHVVPHIEPVARCIIPDLIGMGKSGKSGNGSV", "values": [{"measurement": "measured activity in the presence of cAMP", "setting": "[5]; exogenous cAMP", "value": 7595, "unit": "RLU"}, {"measurement": "measured activity in the absence of cAMP", "setting": "[5]; no cAMP", "value": 298, "unit": "RLU"}, {"measurement": "fold change with cAMP", "setting": "[5]; presence vs absence of cAMP", "value": "~25", "unit": "fold"}]}, {"molecule": "pBFB400: Met-(OpLuc 1-84)-GSTG-R2betaB-GSSG-(OpLuc 85-169) (protein) MFTLADFVGDWQQTAGYNQDQVLEQGGLSSLFQALGVSVTPIQKVVLSGENGLKADIHVIIPYEGLSGFQMGLIEMIFKVVYPVDGSTGMYESFIESLPFLKSLEFSERLKVVDVIGTKVYNDGEQIIAQGDSADSFFIVESGEVKITMKRKGKSEVEENGAVEIARCSRGQYFGELALVTNKPRAASAHAIGTVKCLAMDVQAFERLLGPCMEIMKRNIATYEEQLVALFGTNMDIVGSSGDHHFKIILHYGTLVIDGVTPNMIDYFGRPYPGIAVFDGKQITVTGTLWNGNKIYDERLINPDGSLLFRVTINGVTGWRLCENILA", "values": [{"measurement": "luminescence, + exogenous cAMP", "setting": "[4]", "value": "10,369"}, {"measurement": "luminescence, − no exogenous cAMP", "setting": "[4]", "value": "6,387"}]}, {"molecule": "pBFB402: OpLuc 1-84 / R2betaB / OpLuc 85-169, 20 aa linkers (SEQ ID NO: 195) (protein) MFTLADFVGDWQQTAGYNQDQVLEQGGLSSLFQALGVSVTPIQKVVLSGENGLKADIHVIIPYEGLSGFQMGLIEMIFKVVYPVDGSSGGSGGSGGGSGGSGGSGMYESFIESLPFLKSLEFSERLKVVDVIGTKVYNDGEQIIAQGDSADSFFIVESGEVKITMKRKGKSEVEENGAVEIARCSRGQYFGELALVTNKPRAASAHAIGTVKCLAMDVQAFERLLGPCMEIMKRNIATYEEQLVALFGTNMDIVGSGGSGGSGGTSGGSGGSSGDHHFKIILHYGTLVIDGVTPNMIDYFGRPYPGIAVFDGKQITVTGTLWNGNKIYDERLINPDGSLLFRVTINGVTGWRLCENILA", "values": [{"measurement": "luminescence, + exogenous cAMP", "setting": "[4]", "value": "62,264"}, {"measurement": "luminescence, − no exogenous cAMP", "setting": "[4]", "value": "8,568"}]}, {"molecule": "pBFB398: Met-(OpLuc 1-50)-GSSGGSGGSG-R2betaB-GSSGGSGGSG-(OpLuc 51-169) (protein) MFTLADFVGDWQQTAGYNQDQVLEQGGLSSLFQALGVSVTPIQKVVLSGENGSSGGSGGSGMYESFIESLPFLKSLEFSERLKVVDVIGTKVYNDGEQIIAQGDSADSFFIVESGEVKITMKRKGKSEVEENGAVEIARCSRGQYFGELALVTNKPRAASAHAIGTVKCLAMDVQAFERLLGPCMEIMKRNIATYEEQLVALFGTNMDIVGSSGGSGGSGGLKADIHVIIPYEGLSGFQMGLIEMIFKVVYPVDDHHFKIILHYGTLVIDGVTPNMIDYFGRPYPGIAVFDGKQITVTGTLWNGNKIYDERLINPDGSLLFRVTINGVTGWRLCENILA", "values": [{"measurement": "luminescence, + exogenous cAMP", "setting": "[4]", "value": "4,917"}, {"measurement": "luminescence, − no exogenous cAMP", "setting": "[4]", "value": 291}]}]}
